Target: T1, GAL4 DNA binding domain (UniProt P04386 1-147)
T1 construct: Residues read through from the cloning site are not described; also called BD
Test: yeast two-hybrid, growth on SD/-Trp/-Leu/-Ade/-His; empty vector

T1 sequence (P04386 1-147 limits assumed): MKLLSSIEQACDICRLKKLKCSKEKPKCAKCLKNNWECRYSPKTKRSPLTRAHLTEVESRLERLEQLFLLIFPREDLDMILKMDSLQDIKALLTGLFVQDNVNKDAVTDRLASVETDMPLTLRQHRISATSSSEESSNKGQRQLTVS

B1: GAL4 activation domain (other, UniProt P04386 768-881, looked up)
chain: ANFNQSGNIADSSLSFTFTNSSNGPNLITTQTNSQALSQPIASSNVHDNFMNNEITASKIDDGNNSKPLSPGWTDQTAYNAFGITTGMFNTTTMDDVYNYLFDDEDTPPNPKKE
notes: Residues read through from the cloning site are not described; also called AD
binding result: no binding
